Biological target: CASK_CAMK domain (residues 1-345) (Mus musculus) (UniProt O70589)
Assay: ITC

LiprinA2 CID G977E and H983R (domain or fragment)
fold increase in the binding affinity against wild-type LiprinA2: 9 fold

Caskin1 CID L378T (domain or fragment)
fold decrease of the interaction against wild-type Caskin1: 9 fold

Caskin1 CID L378T/R379H (domain or fragment)
fold decrease of the binding against wild-type Caskin1: 40 fold

reported Caskin1 peptide
Kd: 6.94 µM | stoichiometry N: 1
